The data set concerns the target hSSB1 (SSB1, single-stranded DNA binding protein 1) (human, UniProt Q9BQ15 1-211). The experiment in a line: EMSA. In general terms: Mobility shift assays separate free from complexed probe on a gel.

hSSB1 (SSB1, single-stranded DNA binding protein 1), sequence (Q9BQ15 whole entry): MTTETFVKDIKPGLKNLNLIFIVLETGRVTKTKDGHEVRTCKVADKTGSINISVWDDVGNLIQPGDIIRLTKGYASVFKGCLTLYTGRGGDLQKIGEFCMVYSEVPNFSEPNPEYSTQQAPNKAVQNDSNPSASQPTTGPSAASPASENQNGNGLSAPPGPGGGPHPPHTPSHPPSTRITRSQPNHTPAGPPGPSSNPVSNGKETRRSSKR

Consider TTAGGGTTAGGGTTAGGGTTAGGGTTAGGG (ssDNA) [G-rich telomeric strand (TTAGGG)5], for which the binding result is given as “binds”.
